Measured values published in patent US20230212549A1 (3B PHARMACEUTICALS, published 2023).
Numbered stars: 1 amine (or outer) side, 2 acyl side, 3 side chain; on linkers, the order of the positions; unused ones are H or OH. Bridge positions count the residues as written; N and C are the ends. Square brackets hold non-standard residues; d marks the D form. Primed or numbered codes have the meaning given here. * marks the point of attachment. Ttds″ = 1,13-diamino-4,7,10-trioxatridecan-succinamic acid spacer, O=C(CCC(=O)[*:2])NCCCOCCOCCOCCCN[*:1]; TBMB(SCH2CH2NH-DOTA) = O=C(O)CN1CCN(CC(=O)O)CCN(CC(=O)NCCSCc2cc(C[*:1])cc(C[*:2])c2)CCN(CC(=O)O)CC1; Ttds = 1,13-diamino-4,7,10-trioxatridecan-succinamic acid, O=C(CCC(=O)[*:2])NCCCOCCOCCOCCCN[*:1]; DOTA = O=C(O)CN1CCN(CC(=O)O)CCN(CC(=O)*)CCN(CC(=O)O)CC1; 3Lut″ = 3,5-lutidylidene (from 3,5-lutidine); mXylylene = c1cc(C[*:1])cc(C[*:2])c1; Pentanesulfonyl = CCCCCS(=O)(=O)*; Nle = CCCC[C@H](N)C(=O)O; Hexanoyl = CCCCCC(=O)*; NH(CH2)5NH2 = NCCCCCN*

B1: H-met-[Cys(3MeBn)-Pro-Pro-Thr-Glu-Phe-Cys]-Asp-His-Phe-Arg-Asp-NH2 (peptide)
peptide: H-[dM]CPPTEFCDHFRD-NH2
modifications: linker 2-8 via mXylylene
SMILES: CSCC[C@@H](N)C(=O)N[C@H]1CSCc2cccc(c2)CSC[C@@H](C(=O)N[C@@H](CC(=O)O)C(=O)N[C@@H](Cc2c[nH]cn2)C(=O)N[C@@H](Cc2ccccc2)C(=O)N[C@@H](CCCNC(=N)N)C(=O)N[C@@H](CC(=O)O)C(N)=O)NC(=O)[C@H](Cc2ccccc2)NC(=O)[C@H](CCC(=O)O)NC(=O)[C@H]([C@@H](C)O)NC(=O)[C@@H]2CCCN2C(=O)[C@@H]2CCCN2C1=O
notes: also called 3BP-2976
B2: Pentyl-SO2-[Cys(3MeBn)-Pro-Pro-Thr-Gln-Phe-Cys]-Asp-NH2 (peptide)
peptide: Pentanesulfonyl-CPPTQFCD-NH2
modifications: linker 1-7 via mXylylene
SMILES: CCCCCS(=O)(=O)N[C@H]1CSCc2cccc(c2)CSC[C@@H](C(=O)N[C@@H](CC(=O)O)C(N)=O)NC(=O)[C@H](Cc2ccccc2)NC(=O)[C@H](CCC(N)=O)NC(=O)[C@H]([C@@H](C)O)NC(=O)[C@@H]2CCCN2C(=O)[C@@H]2CCCN2C1=O
notes: also called 3BP-3514
B3: Ac-Met-[Cys(3MeBn)-Pro-Pro-Thr-Glu-Phe-Cys]-Asp-His-Phe-Arg-Ala-NH2 (peptide)
peptide: Ac-MCPPTEFCDHFRA-NH2
modifications: linker 2-8 via mXylylene
SMILES: CSCC[C@H](NC(C)=O)C(=O)N[C@H]1CSCc2cccc(c2)CSC[C@@H](C(=O)N[C@@H](CC(=O)O)C(=O)N[C@@H](Cc2c[nH]cn2)C(=O)N[C@@H](Cc2ccccc2)C(=O)N[C@@H](CCCNC(=N)N)C(=O)N[C@@H](C)C(N)=O)NC(=O)[C@H](Cc2ccccc2)NC(=O)[C@H](CCC(=O)O)NC(=O)[C@H]([C@@H](C)O)NC(=O)[C@@H]2CCCN2C(=O)[C@@H]2CCCN2C1=O
notes: also called 3BP-3198
B4: DOTA-Ttds-Nle-[Cys(3MeBn)-Pro-Pro-Thr-Glu-Phe-Cys]-Asp-His-Phe-Arg-Asp-NH2 (peptide)
peptide: {DOTA}-[Ttds][Nle]CPPTEFCDHFRD-NH2
modifications: linker 3-9 via mXylylene
SMILES: CCCC[C@H](NC(=O)CCC(=O)NCCCOCCOCCOCCCNC(=O)CN1CCN(CC(=O)O)CCN(CC(=O)O)CCN(CC(=O)O)CC1)C(=O)N[C@H]1CSCc2cccc(c2)CSC[C@@H](C(=O)N[C@@H](CC(=O)O)C(=O)N[C@@H](Cc2c[nH]cn2)C(=O)N[C@@H](Cc2ccccc2)C(=O)N[C@@H](CCCNC(=N)N)C(=O)N[C@@H](CC(=O)O)C(N)=O)NC(=O)[C@H](Cc2ccccc2)NC(=O)[C@H](CCC(=O)O)NC(=O)[C@H]([C@@H](C)O)NC(=O)[C@@H]2CCCN2C(=O)[C@@H]2CCCN2C1=O
B5: Hex-[Cys(tMeBn(DOTA-AET))-Pro-Pro-Thr-Gln-Phe-Cys]-Ser-OH (peptide)
peptide: Hexanoyl-CPPTQFCS-OH
modifications: linker 1-7 via TBMB(SCH2CH2NH-DOTA)
SMILES: CCCCCC(=O)N[C@H]1CSCc2cc(CSCCNC(=O)CN3CCN(CC(=O)O)CCN(CC(=O)O)CCN(CC(=O)O)CC3)cc(c2)CSC[C@@H](C(=O)N[C@@H](CO)C(=O)O)NC(=O)[C@H](Cc2ccccc2)NC(=O)[C@H](CCC(N)=O)NC(=O)[C@H]([C@@H](C)O)NC(=O)[C@@H]2CCCN2C(=O)[C@@H]2CCCN2C1=O
notes: also called 3BP-3658
B6: Hex-[Cys(tMeBn(DOTA-AET))-Pro-Pro-Thr-Gln-Phe-Cys]-Gly-OH (peptide)
peptide: Hexanoyl-CPPTQFCG-OH
modifications: linker 1-7 via TBMB(SCH2CH2NH-DOTA)
SMILES: CCCCCC(=O)N[C@H]1CSCc2cc(CSCCNC(=O)CN3CCN(CC(=O)O)CCN(CC(=O)O)CCN(CC(=O)O)CC3)cc(c2)CSC[C@@H](C(=O)NCC(=O)O)NC(=O)[C@H](Cc2ccccc2)NC(=O)[C@H](CCC(N)=O)NC(=O)[C@H]([C@@H](C)O)NC(=O)[C@@H]2CCCN2C(=O)[C@@H]2CCCN2C1=O
notes: also called 3BP-3656

Target: T1, fibroblast activation protein (FAP) on FAP-expressing human WI-38 fibroblasts (human, UniProt Q12884 1-760)
T1 construct: also called human FAP
Experiment: competitive FACS, WI-38 cells, vs Cy5 tracer m3; A = pIC50 >8.0

Row | pIC50 Category (FACS) | Binder
1 | > 8 pIC50 | B1
2 | > 8 pIC50 | B2
3 | > 8 pIC50 | B3
4 | > 8 pIC50 | B4
5 | > 8 pIC50 | Hexanoyl-CPPTQFCD-{NH(CH2)5NH2-DOTA′} (linker 1-7 via mXylylene, also called 3BP-3403) [Hex-[Cys(3MeBn)-Pro-Pro-Thr-Gln-Phe-Cys]-Asp-Ape-NH-DOTA′]
6 | > 8 pIC50 | B5
7 | > 8 pIC50 | B6
8 | > 8 pIC50 | Hexanoyl-CPPTQFCD-NH2 (linker 1-7 via 3Lut″, also called 3BP-3519) [Hex-[Cys(3Lut)-Pro-Pro-Thr-Gln-Phe-Cys]-Asp-NH2]
9 | > 8 pIC50 | Hexanoyl-CPPTQFCD-NH2 (linker 1-7 via tMeBn(GaDOTA-PP); also: gallium complex of DOTA, also called 3BP-3592) [Hex-[Cys(tMeBn(GaDOTA-PP))-Pro-Pro-Thr-Gln-Phe-Cys]-Asp-NH2]
10 | > 8 pIC50 | Hexanoyl-CPPTQFCD[Ttds″]-{NH(CH2)5NH2-DOTA′} (linker 1-7 via mXylylene, also called 3BP-3404) [Hex-[Cys(3MeBn)-Pro-Pro-Thr-Gln-Phe-Cys]-Asp-Ttds-Ape-NH-DOTA′]

Target: Recombinant human FAP (R&D systems, #3715-SE) (human, UniProt Q12884 26-760)
Experiment: cell-based or functional assay

Row | pIC50 Category (Activity) | Binder
11 | > 8 pIC50 | B1
12 | > 8 pIC50 | B2
13 | > 8 pIC50 | B3
14 | > 8 pIC50 | B4
15 | > 8 pIC50 | Hexanoyl-CPPTQFCD-{NH(CH2)5NH2-DOTA′} (linker 1-7 via mXylylene, also called 3BP-3403) [Hex-[Cys(3MeBn)-Pro-Pro-Thr-Gln-Phe-Cys]-Asp-Ape-NH-DOTA′]
16 | > 8 pIC50 | B5
17 | > 8 pIC50 | B6
18 | > 8 pIC50 | Hexanoyl-CPPTQFCD-NH2 (linker 1-7 via 3Lut″, also called 3BP-3519) [Hex-[Cys(3Lut)-Pro-Pro-Thr-Gln-Phe-Cys]-Asp-NH2]
19 | > 8 pIC50 | Hexanoyl-CPPTQFCD-NH2 (linker 1-7 via tMeBn(GaDOTA-PP); also: gallium complex of DOTA, also called 3BP-3592) [Hex-[Cys(tMeBn(GaDOTA-PP))-Pro-Pro-Thr-Gln-Phe-Cys]-Asp-NH2]
20 | > 8 pIC50 | Hexanoyl-CPPTQFCD[Ttds″]-{NH(CH2)5NH2-DOTA′} (linker 1-7 via mXylylene, also called 3BP-3404) [Hex-[Cys(3MeBn)-Pro-Pro-Thr-Gln-Phe-Cys]-Asp-Ttds-Ape-NH-DOTA′]
